Substrate in the series: BHET
Particulars: 120 h.

We go through 15 proteins from the PETadex activity labels.

B1: unnamed (protein)
chain: MKFNLVAQAALFAATLAAGSAAWAVQIGPAPTKSALEASRGPFSTKSFTVSRPNGYGAGTVYYPTNAGAKVGVISIVPGYLSYQNSINWWGPRLASHGFVVVTIDTNSTTDQPASRSTQQLKALDQVVALGNTSSSPLYNKVDGSRTGVMGWSMGGGGSLISGQNRPSIKAAAPQAPWNSSTNFSSLTVPTLIFGCQSDATAAPASHAIPFYNSMSRNPKQYLEKSLGNHFCFNSANATVGLKGVAWMKRFVDGDTRYTSFACNNPNASGFSSFRTERCS
Consider B1, for which the plate clearing result was “not clears the plate”.

B2: unnamed (protein)
chain: MSCRQEPLGDKMRFFSQKCLATVAAVVATLASGAALAQTSNPYQRGPNPTTSSLEASRGSFAISQFRVSRPSGFGGGTVYYPTNAGGTVGAIAVVPGFLARQSTINWWGPRLASHGFVVITIDTNSTSDQPASRATQLMAALRQVVTLNGTRSSPIYNKVDTSRLAVMGWSMGGGGTLIAARDNPTLKAAVPFAPYNTGTNFSASAVPTLIIGCESDTVAPVGQHAEAFYTSMTRPEKAYLEINGGSHTCATSGNRNQAMIGKYGVSWMKRFVDNDTRFSDFLCGAPHAADLRNTSVISEYRETCPY
Take B2: the plate clearing result is reported as “not clears the plate”.

B3: unnamed (protein)
chain: MLALRTSFPRVLTRLLAASLATGLVAQAQAAGHERGPAPTAASLEAEAGPFQVASTVLGAPVGYKGGTVFYPKGPGPFALVAFAPGFIETQSWNAWWAKYLASHGFVVVNIDTKSTLAFPPARQREQLAALKDVIQRSHTRGTPFYGLVDATRLGAMGHSMGGGATLELARDTPHIKAIVPMAPFQTTGTDYSRLTVPTLILTCKGDIVASAKSHAAPIYDSLPSSLDKAHVELAGGGGHPCTTSLGTSAEVKKVAAKYGVSWLKRFLDEDTRYSPFLCGAEHEASLKTSVVSAYQGNCPH
Regarding B3, the plate clearing entry is “not clears the plate”.

B4: unnamed (protein)
chain: MRAGFMGVGAAALVALAGCSSTPSNEGTSKPSVTAPTGGSTVIGAAGVGATAGRPASAGTGASPAVTPPSTTVPSGTTKPPAAAGSSAMGAAGAAVSGMAGSSASAGTGAIAGSSAAAGSSAAAGSGAAAGSGAAPGGGFIREAAPTEDSLKKNGEYSVKSYTEKDGLVGGMEYGDAALGGDGSELYYPEGATAPFAAMAIVPGFTAQRSDVAPWGPFLASHGIVALVIDTNSTGDQPDVRSRALLDALESIKKENMRDGSPVKGKIDTSRLGVMGWSMGGGGTWITADGHPELKVAVSLCGWIIQSIGSKTTVPSLQLAVQDDQLAAGMSQPVYMAIPDKTPKMLVEWSSGGHWINNSPENVDHQVGRYGLPWIKVYLENDERYRQFFKTKPTGASDFQTNQ
With B4, the plate clearing result was “clears the plate (z > 3 vs empty vector)”.

B5: unnamed (protein)
chain: MKVNKAHSIAVGLLSLVAVAHTHAQTNPYAKGPDPTSAALEADGPFVVSTQNISGAGFGGATVYSPDTAGTYAVVAFCPGFTATRSSVASFGRRLATHGFVVATIDTNSTLDLPPSRGTQLLAALKTVSALSTGPAAGKIDASRKVVSGWSMGGGGTLYASASDETLKTAVGLAPYSAQKKKFSTSVPQLILGGEDDIVAPVSSHSLSFFNQLPNATPKLYAEIADADHYFPTDAESSQPASKLQIAWVKRFADNDTRYEQFLSTAGIQVDLTNGRLSDSRRESTTF
As to B5, the plate clearing result is given as “not clears the plate”.

B6: unnamed (protein)
chain: MLRFRVAASLPAEYLAVDNVVLEGTAQPPAPGGSGYQKGPEPTAALLEAGTGPFATASVTLSRSAASGFGGGTIHYPQGVAGPFAAVAVVPGYLAAESTIAWWGPRLASHGFVVITMATNNTLDLPASRSAQLTAALNQLKTLSATPGHAVFGLVDPNRLGVVGWSYGGGGTLLNAQANPQLKAAMALAPKTLLQGDFTGTTVPTLVVGCQADTTAAPAFWAIPFYNKVSASTGKAYLEVRGGSHFCVTSSTSDADKKALGKYGVAWLKRFMDEDTRYAPFLCGAPRQADVAGNAAISDYRDNCPY
For the protein B6, the plate clearing entry is recorded as “not clears the plate”.

B7: unnamed (protein)
chain: MKKLALKKLAACTFSLLFSLSAYSGGGDDGSNSGELPPPSTCSINCGFEIGPDPSLSFVRASQGPLPVSTSIVSSSVDGFGGGTIYYPSTITDEMATIAISPGFTASQSAIAWWGPLLASHGFVVITIDTNGTFDQPTSRGRQLDSALNYLISEGNRANSPVAGLIDENRLATMGHSMGGGGALQSAARNRLSASVPLAPFNTGSNDFNQINVPTMIMGCEDDGVAPVNSHAIPFYQDIPGTTDKALLEIANGPHNCANGGSSNNPTLSTYGVSWMKRFLDKDRRYDQFLCGPDHIADSRISDFRDTCTF
For the protein B7, the plate clearing result was “not clears the plate”.

B8: unnamed (protein)
chain: MRLIRRWPMRRLAIGFVLALVLSACDWRGPAPTQQSVVAARGPFAVGTIAVPSSAGFGGGTIYYPSDNAGPFAVISISPGFLGDQSSIAVWGPRLASNGFVAITINTTNGFILPDQRSQEQRQALTYVVNQGNNPSSPISGKVDPDRKGVAGHSMGGGATLISANADPTIRAAMPLAPWNGSASFPNVRVPTLIWACEADNIAPVASHASPMYNSIPSTTRKMYLSVDNGNHFCANSPDNSSQTVGKFGVSFFKKFLDTDTRYDPWVCGASRATAGTVLNEVRSTCPF
On to B8, for which the plate clearing result is “not clears the plate”.

B9: unnamed (protein)
chain: MKTSNSRQRRWAVGLGLLLLAAAAHAQTNPYQKGPDPTSASLNATAGPFAVATTSVSSSASGFGGGTIYYPTTAGSYAAIAISPGFTATQSSIAWLGRRLASHGFVVITINTNSTLDQPPSRATQLMAALRYLTNSSSSTVRSRVDANRLGVAGHSMGGGGTLIAARDNPTLKAAVPLTPWSTTKSFSTVRVPTLIVGAENDTVAPVSSHSIPFYNSLPSSLDKAYAELNGASHFAPNSTNTPIGRYSVAWVKRFMDNDTRYSPFLCGAPHTAYATSTVFSDYRSTCPY
For B9, the plate clearing result is “not clears the plate”.

B10: unnamed (protein)
chain: MASQTNPYARGPNPTAASLEASAGPFTVRSFTVSRPSGYGAGTVYYPTNAGGTVGAIAIVPAYAARQSSIKWWGPRLASHGFVVITIDTNSTLDQPSSRSSQQMAALRQVASLNGTSSSPIYGKVDTARMGVMGWSMGGGGSLISAANNPSLKAAAPQAPWDSSTNFSSVTVPTLIFACENDSIAPVNSSALPIYDSMSRNAKQFLEINGGSHSCANSGNSNQALIGKKGVAWMKRFMDNDTRYSTFACENPNSTRVSDFRTANCSLEHHHHHH
As for B10, the plate clearing result is “not clears the plate”.

B11: unnamed (protein)
chain: MNTSILEKMAVGASALLFSFSAFSFTPDPTPDPDPDPGPGPCQSDCDFTRGPNPTSSYLEANSGPYSVSTISVSRSVSGFGGGTIHYPTNTTGTMGAVAIVPGFLAGESSISWWGPRLASHGFVVITIATNSGFDQPDSRETQLGRALDYVISQSNSGSSPISGMVDSTRVGAMGWSMGGGGTLRLASGTRLSAAIPLAPWHSGSNNFNQIDTPTLIIACENDSTAPVGSHASPFYNRIPTSTDKAYLEINNGSHSCANGGGSNGGLLGKYGVSWMKRFIDQDTRYSQFLCGPNHAANSAISEYRETCNY
For B11, the plate clearing entry was “not clears the plate”.

B12: unnamed (protein)
chain: MKFRLAKLAVLSCALASASAFAQYQKGPDPTTSSLERAGSFATRTISVSSLAASGFGGGRIYYPTASGSYGVIAVSPGYTGTASTMYFWGERLSSHGFVVIVIETNTLLDQPGSRANQLMAALNYTVSQGNSRTSALYGKVDGNRRGVAGHSMGGGGTLIAAADNASLKAAVPMAPWNLSSLSFRGIRVPTMIFGCQSDAIAPVNTHAVPFYNAIPSSTKKGYVEMRLDDHFCVMNGGGHYETLGKLGISWFKRFIDEDTRYSKFLCGTEYNATVRSTEVSDSKNNCPY
B12: the plate clearing result is on record as “not clears the plate”.

B13: unnamed (protein)
chain: MGSDDAWIRGEDPTEASIVAMGPYAVGEITEADGLRDGPLYGDASVGDGGATVYYPTDADPPFGGIAVYPGWLYNRDAIAGWGPFLASHGIVMMAVDPQSTGEQPEDRQLGQADALISLKGENTRAGSPLEGKLDTTRLGVMGWSMGGGATWLNADDTASEVYADLVVAISLCGWRPVAVGGNTKAASLQFASVADVLAGGMSQPVYDLIPASTPKMLIEFEGDDHFIANDPSGASWQVGRYGLSWIKVFLERDERYRPFLMTMPMNTTEVRPLM
With B13, the plate clearing entry is “clears the plate (z > 3 vs empty vector)”.

B14: unnamed (protein)
chain: MRPSSSSLHTAVPLRPCSRAMTALIALATTIGLALALLTAAAPPAAAADLLSQGRLATASSTENTSTPASAAVDGNTGTRWASTFSDPQWLSVDLGATATISQVVLRWEAAYARAFQIQTSTNGTVWTTVHSTTTGTGGVQTLDVIGNGRYVRMLGTQRGTTYGYSLFEFQVYGSGGGTPPGNGIPDPTATSLETANGPLTTATYAVPSPSGYGSGTVTYPTDSGSYPGVVLMPGYQGTQQNLQWLAPRLASWGFVVINVGTNTLTDDPASRGRQITAAGSQLIALGNAAGNPLSGRVSGALGAVGHSMGGGGVMAALRDDARFRAGVPTAPYYPDTNFSAVTEPTFFLTCQSDPVAHGNDYAVPWYNSMSQAEKLYIEVPGDHLCPMTGSGNKAKQGKWIVSFLSLWLRADTRFSPFLCGPVRDPDKNNPSLVTRWMDTCSF
Consider B14, for which the plate clearing entry is “not clears the plate”.

B15: unnamed (protein)
chain: MKTSNTRTARTIPGDTMSLGLTRLAKAAVLAAALLMSAAAQAQSNPYQKGPDPTAASLEATAGSFAVSTTSVSSLSASGFGGGTIYYPTAAGSYGAIAVSPGFTATQSSIAWLGPRLASHGFVVITIDTNSTLDQPDSRATQLMAALNYVVSLSQTSSSPIYGKVDANRLGVAGHSMGGGGTLIAARDNPTLKAAVPLAPWNTTKNFSSVTVPTLIIGCENDTVAPVSSHAIPFYNSIPSSTDKAYMELNGADHFCPQSSSNNPIIGKYMVAWMKRFVDNDTRYSPFLCGAPHQADLSSSAVSDYRSNCPY
For B15, the plate clearing entry is given as “not clears the plate”.
